The values below come from paper PMC6679193, “Unraveling the Impact of Cysteine-to-Serine Mutations on the Structural and Functional Properties of Cu(I)-Binding Proteins” (International Journal of Molecular Sciences, 2019).

First the molecules themselves.
B2: MBD3-4_C268S_C271S_C370S_C373S mutant of ATP7B (SER-MBD3-4) (domain or fragment, human)
chain: SANQNFNNSETLGHQGSHVVTLQLRIDGMHSKSSVLNIEENIGQLLGVQSIQVSLENKTAQVKYDPSCTSPVALQRAIEALPPGNFKVSLPDGAEGSGTDHRSSSSHSPGSPPRNQVQGTCSTTLIAIAGMTSASSVHSIEGMISQLEGVQQISVSLAEGTATVLYNPSVISPEELRAAIEDMGFEASVVSESCSTNPLGNH
notes: The methods describe only the wild-type construct; also called MBD3-4(Ser); source: expressed and purified as WT-MBD3-4 (E. coli Origami 2, chitin beads, intein self-cleavage)

Series [1] addresses T1, ATP7B metal binding domains 3-4, wild type (WT-MBD3-4) (human, UniProt P35670 238-439).
T1 construct: The printed PCR primers encode a start at RPLSSAN and an end at TNPLGNH followed by a stop codon; Residues of the vector may remain after intein cleavage; also called ATP7B MBD3-4; ATP7B-MBD34; source: E. coli Origami 2, purified (chitin beads, intein self-cleavage with DTT)
T1 sequence: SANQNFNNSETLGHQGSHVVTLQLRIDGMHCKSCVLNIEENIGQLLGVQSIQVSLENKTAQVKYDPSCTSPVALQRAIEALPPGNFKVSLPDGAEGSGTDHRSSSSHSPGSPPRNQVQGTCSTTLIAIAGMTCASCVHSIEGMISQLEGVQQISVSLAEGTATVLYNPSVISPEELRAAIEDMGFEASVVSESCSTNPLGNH
Description: cross-linking; 0.1% glutaraldehyde, RT, 30 min or overnight, phosphate buffer (25 mM Na2HPO4, 150 mM NaCl, pH 8), read by SDS-PAGE; MBD3-4 at 50 uM or increasing concentrations, Atox1 at 50 uM; with or without Cu(I) at different ratios. The note with it: both partners purified.

Series [2] concerns the target B2. Described as above. The note with it: both partners purified.
Series [3] concerns the molecule itself. Described as above.
Series [4] deals with the molecule itself. Description: cross-linking; 0.6% glutaraldehyde, RT, 30 min, phosphate buffer (25 mM Na2HPO4, 150 mM NaCl, pH 8), CueR at 20 uM, with or without Cu(I) at a 1:3 ratio, read by SDS-PAGE.

B1: Atox1 metallochaperone, wild type (WT-Atox1) (natural protein, human)
chain: MPKHEFSVDMTCGGCAEAVSRVLNKLGGVKYDIDLPNKKVCIESEHSMDTLLATLKKTGKTVSYLGLE
notes: Human Atox1 copper metallochaperone
For B1, the binding result in series [1] and in series [2] was “binds” throughout.
Consider B2, for which the binding result in series [3] is reported as “binds”.

B3: CueR metalloregulator of E. coli, wild type (WT-CueR) (natural protein, UniProt P0A9G4 1-135, looked up)
chain: MNISDVAKITGLTSKAIRFYEEKGLVTPPMRSENGYRTYTQQHLNELTLLRQARQVGFNLEESGELVNLFNDPQRHSADVKRRTLEKVAEIERHIEELQSMRDQLLALANACPGDDSADCPIIENLSGCCHHRAG
notes: No cleavage is described; source: E. coli BL21, purified (Ni-NTA agarose)
Consider B3, for which the “stoichiometry N” value in series [4] turned out to be 2.

B4: CueR_C120S (natural protein, E. coli, UniProt P0A9G4 1-135, looked up)
chain: MNISDVAKITGLTSKAIRFYEEKGLVTPPMRSENGYRTYTQQHLNELTLLRQARQVGFNLEESGELVNLFNDPQRHSADVKRRTLEKVAEIERHIEELQSMRDQLLALANACPGDDSADSPIIENLSGCCHHRAG
notes: E. coli CueR, same construct as m4, with C120S; source: E. coli BL21, purified (Ni-NTA agarose)
Consider B4, for which, in series [4], the binding result is on record as “binds”.

B5: CueR_C112S_C120S (natural protein, E. coli, UniProt P0A9G4 1-135, looked up)
chain: MNISDVAKITGLTSKAIRFYEEKGLVTPPMRSENGYRTYTQQHLNELTLLRQARQVGFNLEESGELVNLFNDPQRHSADVKRRTLEKVAEIERHIEELQSMRDQLLALANASPGDDSADSPIIENLSGCCHHRAG
notes: E. coli CueR, same construct as m4, with C112S and C120S; source: E. coli BL21, purified (Ni-NTA agarose)
B5: the binding result in series [4] is recorded as “binds”.

B6: CueR_C112S (natural protein, E. coli, UniProt P0A9G4 1-135, looked up)
chain: MNISDVAKITGLTSKAIRFYEEKGLVTPPMRSENGYRTYTQQHLNELTLLRQARQVGFNLEESGELVNLFNDPQRHSADVKRRTLEKVAEIERHIEELQSMRDQLLALANASPGDDSADCPIIENLSGCCHHRAG
notes: E. coli CueR, same construct as m4, with C112S; source: E. coli BL21, purified (Ni-NTA agarose)
In the case of B6, the binding result in series [4] is “binds”.
